# According to paper PMC4486171, “Ohr Protects Corynebacterium glutamicum against Organic Hydroperoxide Induced Oxidative Stress” (PLoS ONE, 2015):
# Substrate: CC(C)(OO)c1ccccc1
# Test: purified protein
# Type: biochemical, Corynebacterium glutamicum
# Conditions: 40 μM Lpd, 5 μM SucB, 0.2 mM NADPH, 0.1 μM Ohr, 50 mM sodium phosphate pH 7.4, 50 mM NaCl, 1 mM DTPA, 37°C
protein,measurement,value
"Ohr (Corynebacterium glutamicum ATCC 13032) (protein, N-terminal His6 tag (pET-28a), about 17 kDa on gel, E. coli BL21(DE3)) MAIESIAYTSEALSTGSGRLGHVRSTDGALEFEMTPPKALGGSGEGTNPEQLFAVGYAACFHSAMHSVARSRKITLEDTAVGARVSIGPNGAGGFEIAVELEVSIPQLPQAEAQELADAAHQVCPYSNATRGNISVTVSVIDEEA",Km,17.48 ± 0.78 µM
same,kcat,5.48 s⁻¹
same,kcat/Km,314300 ± 1420 M⁻¹ s⁻¹
